± gives the half width of the 95% confidence interval.
Assay: folding stability dG unfold from chymotrypsin proteolysis; higher = more stable
How it was run: (§1)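 Mini-proteins designed to be under 80 residues and free of cysteine were carried in a PA-tagged cDNA display construct and digested with trypsin and with chymotrypsin. Each protease was applied at 11 threefold-diluted concentrations, alongside a no-protease condition, before sequencing. K50 came from Bayesian fitting of the sequencing counts, and unfolding free energy was obtained by comparing it with a sequence-predicted unfolded-state K50 and a shared folded-state K50, for each protease separately or for both together. Designs were retained only if their AlphaFold2 dimer inter-PAE exceeded 15.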

| Sequence | folding stability dG unfold |
| --- | --- |
| SAGLSPQVRDWLRDLFQEEGFKVKEIDVQPHPNGQMYIKINYPNGKPIKEIPVPPGMDTPEQALKMIRKSAG [r5_352_TrROS] | 0.498 ± 0.13 kcal/mol |
| SAGGKTTVLIITENPDGTPKAIPIPLDELDIEEIVELIKELVEEGRKLKVFVPADTPPELIKAIKEAASAGG [r13_251_TrMRF] | 3.2 ± 0.067 kcal/mol |
| SAGGSAGGSAGMVLPVTKVYRDGDTVYLYFDGLGLIAEIRIDDDKITLPSVYRVHPDEDLSAGGSAGGSAGG [r17_30_TrMRF] | 0.438 ± 0.11 kcal/mol |
| SAGGDPPDIYVQIEHKNGKTRTIPFDNMSIENIAEELRDHNYDEVKISVFRMGKPIETFKIKIPPGDSAGGS [r16_700_TrROS] | 2.95 ± 0.15 kcal/mol |
| SAGTVKVSEDGDKLTVTMTAPPESPALVEALIQALKDAGLTIVTAEITTEPGEGDLVRTTITLTLKPPASAG [r5_739_JUSTAS] | 2.545 ± 0.024 kcal/mol |
| SAGGSAGGSAGGFIARIEYPDGNTRTINPGMSLDELRNLPPDQIRRVEVEPVPPVPDDEKSAGGSAGGSAGG [r7_190_TrROS] | 0.723 ± 0.023 kcal/mol |
| SAGGKQEIEIPIPYKNGMPFRIRIEWEEDPNKPRLRIPIWAPNMPASNFAEEIKKELPPDIKDVEIWPSAGG [r13_404_TrROS] | 0.0456 ± 0.72 kcal/mol |
| SAGGSAGGSAGGSGKLYYIVVELPNGEKISLLVESPEGAIELLEKLNYPVVKAEFFPISSAGGSAGGSAGGS [r4_213_TrMRF] | 3.09 ± 0.055 kcal/mol |
| SAGGFNRKVTVRVKVPATGEEFEFEFDFEGLTLEEIKRKIKEEIKKKGIVLKPDNPVVIEITDLEEDPASAG [r5_230_JUSTAS] | 3.86 ± 0.21 kcal/mol |
| SAGGSMELYTKSPDGKLFKVKIVNPGNAKDKVLFEAEVFDPKNNKPIGRFTGVVDPKTGKIISIKPSAGGSA [r2_324_TrMRF] | 1.68 ± 0.083 kcal/mol |
| SSPSSVPDAVVQALKEAHPDVVSIEVTPLPPESTRISVTLKSGSGSSTVSFSIPSPEGVTRTYTVSVSNPSA [r9_678_JUSTAS] | 1.18 ± 0.091 kcal/mol |
| SAGGSAGGSAGGKYKIKEIKVEEVDGKKYVKLVIYDKNGKPVKTIVMSLEELKKLPPELLSAGGSAGGSAGG [r7_263_TrROS_Hall] | 2.37 ± 0.12 kcal/mol |
| SAGGSAEKPVKIHLMYNPDYYYVRIRNNGGPQSFMFKPDMDIEEIANNFPPGIDEIEIHPMPPEAFSAGGSA [r15_1058_TrROS] | 0.491 ± 0.099 kcal/mol |
| SAGGNDDNWRVIEFTFSPGNIKPEQIRSLLENAGADRITDVEVQRTPNSYTVTFYFPNGKPVEITIPSAGGS [r8_86_TrROS] | 2.37 ± 0.1 kcal/mol |
| SAGGSAGGSAGGSKYIVIRIPGSVDELIDYLRDSGFKIKIESVEYDPPNGEFYVVFKIKSAGGSAGGSAGGS [r4_315_TrROS] | 3.063 ± 0.025 kcal/mol |
| SDIENMPPEQFVHYIREALDEERENNPGEPVRIPIKDLGDKFPGFPPSMLKDMLGLTEDDLNNGPITIRPSA [r9_525_TrROS] | -0.189 ± 0.28 kcal/mol |
| SMIQVDIKPDAINVTVTKEGKSVTVPMDLEELEELLKKGVEKVEIKSPDPEVLEKIKELVEKAGVPIELKSA [r9_810_JUSTAS] | 0.686 ± 0.06 kcal/mol |
| SAGMLGEEAIKDVKLELKEAPENEELVFEDTFPVGDKIARIRIVLKLPKNGGYEIKDIPIEVMAPEEAESAG [r5_96_TrMRF] | -0.177 ± 0.42 kcal/mol |
| SAGGSAKGPKTVTYEFKIKYGDKYYLIKVTVKLHEVKYDPKTKKYTLNLKPNDKLEIKVEIYELDDSAGGSA [r15_1040_TrMRF] | 4.09 ± 0.086 kcal/mol |
| SAGGSAGGDYMMIKITNGSIKLMDGDDGKPIANLPPNQEITIMIPIKPPPPPEERKYDPNGKPKSAGGSAGG [r6_40_TrROS] | 1.24 ± 0.2 kcal/mol |
| SLSKSTPVSSLEEALKIAKEAAEEFEKELGKPYPVLVEVEFEPLEDGSVLVRFKLYRPEEGKYLREIEVGSA [r9_794_TrMRF] | 1.67 ± 0.2 kcal/mol |

Assay: folding stability dG unfold (combined trypsin and chymotrypsin); higher = more stable
How it was run: as §1

| Sequence | folding stability dG unfold |
| --- | --- |
| SAGGKEFIEKLGNNATIEIDTPNGGKVKINLKIEKVKPGKYVIKGEVTVYNPNTNKPVKFPYTLTIESAGGS [r8_473_TrMRF] | 3.13 ± 0.18 kcal/mol |
| SAGGSAGGSAGGSKKIVIRVKDKDGNEREIVLEVPEEELTEEEIAELAKKFPNAEIEVLSAGGSAGGSAGGS [r4_422_TrROS_Hall] | 1.96 ± 0.13 kcal/mol |
| SAGNIQIEPTDGKWRIRITYWMPDPDEITPDTFKNLLRNLGLPIKDIDIEPEPNPNGQRYVTAEIWIPVSAG [r5_922_TrROS] | 3.23 ± 0.059 kcal/mol |
| SAGKVYRIKATAPDGSTAIIEIPENGNAKIKIFYPNGVKEITINLDPNVKIEEILEKFPNFIISSIEEESAG [r5_259_TrMRF] | 4.15 ± 0.22 kcal/mol |
| SAGGSAMERVTITLPDGRELTIERFPEEPNRFVLTFPDGRRLEFEFESPEEGLRAALELVLAGKEGSAGGSA [r15_38_TrMRF] | 3.91 ± 0.06 kcal/mol |
| SAGGVITAVESTTTPLPNGTVLVTLTLKEGGETLQVTVTVSPDGVTVTTPSGKTSTIAPEELASLLPSAGGS [r16_593_JUSTAS] | 1.34 ± 0.076 kcal/mol |
| SAGGSAGGEEEETVTLTLEVEVEAEVKVEKNADGEETEVEVKVKRVRVRLTLTLTKEELEKLLKSAGGSAGG [r6_119_TrROS_Hall] | 3.54 ± 0.31 kcal/mol |
| SDREFEAVFLVETPEEVEALARELALPGVEVEVHVLPAPYLDPETGEPRPFLLAVVRVRVPVPPPGPGALSA [r9_962_TrMRF] | 2.12 ± 0.088 kcal/mol |
| SAGGGTATVTTAEAELPGDVRVTTATVTLPDGSAVRVVTLSSSVPNATATVVVPLPANGPGEGVIVLPSAGG [r13_323_TrMRF] | 1.15 ± 0.069 kcal/mol |
| SAGGSAGGSWMLMVKIEFPENGQERHFMLPPGMTIEDIADRLREDGAPIKDIEVQWMPLPPGDSAGGSAGGS [r12_955_TrROS] | 1.62 ± 0.072 kcal/mol |
| SAGGSAGGSAGGMTLTIPEEVLKKALEEGDEELLKEVVEKAGVKPEDTEVIAVTPEDLLESAGGSAGGSAGG [r7_7_JUSTAS] | 0.822 ± 0.12 kcal/mol |
| SAGGSMTLRLPVPEDVEVVEVTAEVPDPETGKVYVFRSRARVVPYKDGVYLTVDLDPDGRSYGFDPSAGGSA [r2_123_TrMRF] | 0.835 ± 0.059 kcal/mol |
| SDPNGKPKKRRFYVMITVPHKMKPERDPDGKMEMEHKMPTVMFPFPADDLDDLRDILEPFGISVSLMPLDSA [r9_1209_TrROS] | 1.94 ± 0.093 kcal/mol |
| SKTIMIPANMPIDFIRKIARNAAKNGPPVKITIMIPDNPKIKEWLEEAGFPVEIERNKENNMQMITIEVPSA [r9_759_TrROS] | 1.91 ± 0.07 kcal/mol |
| SAGSKVIMIPWEDAEKLIEDLPPGKNVTIHWMWPKGPYWTHTIEVKGDKIKIEPLPPNQFPGWRIMITKSAG [r5_85_TrROS] | 1.65 ± 0.22 kcal/mol |
| SKKIVINLENIPEENREKVLENVLKAIKEAKEKNPEKKVKITILVSPEQKEEVKKLKEELEKAGLEVEEISA [r9_1202_TrROS_Hall] | 2.73 ± 0.36 kcal/mol |
| SAGGSQKLPPGETIPIRIPGFQIEISPDKTTIHVMWPDPDEAKDFLKNLPFPIKIDKVEVMPPEDFSAGGSA [r2_418_TrROS] | 0.85 ± 0.11 kcal/mol |
| KKVKIEIEVIHPGPDGWVIRAKVKYPGNNKKKEKPFFFPNPKEFVKEIANELLPKNQLDDVDIEMYPLEEFS [r1_399_TrROS] | 0.875 ± 0.15 kcal/mol |
| SAGGSAPPPPETVRIRVRITLPDGRTLEIEIEVSREEAERLAKELADRLRELGYEVKVEIVEVEEVSAGGSA [r2_274_TrROS_Hall] | 4.51 ± 0.32 kcal/mol |
| SAGGSAGGSAKKTLTVTVKAEPSEGAPAIAKEVAEKLGLPDAKVLSISYDPETGELTITFEYSAGGSAGGSA [r18_481_TrMRF] | 4.61 ± 0.14 kcal/mol |
| SAGGNKEHKVTLEIYIMMWPDPDNGQPYPMPLEIEAPYKNNDPEAAEADIKELLKEIPIPPWMKDMISAGGS [r16_40_TrROS] | 0.988 ± 0.39 kcal/mol |

| Sequence | folding stability dG unfold |
| --- | --- |
| SAGLSPQVRDWLRDLFQEEGFKVKEIDVQPHPNGQMYIKINYPNGKPIKEIPVPPGMDTPEQALKMIRKSAG [r5_352_TrROS] | 0.312 ± 0.07 kcal/mol |
| SAGGKTTVLIITENPDGTPKAIPIPLDELDIEEIVELIKELVEEGRKLKVFVPADTPPELIKAIKEAASAGG [r13_251_TrMRF] | 3.31 ± 0.056 kcal/mol |
| SAGGSAGGSAGMVLPVTKVYRDGDTVYLYFDGLGLIAEIRIDDDKITLPSVYRVHPDEDLSAGGSAGGSAGG [r17_30_TrMRF] | 0.691 ± 0.095 kcal/mol |
| SAGGDPPDIYVQIEHKNGKTRTIPFDNMSIENIAEELRDHNYDEVKISVFRMGKPIETFKIKIPPGDSAGGS [r16_700_TrROS] | 3.08 ± 0.52 kcal/mol |
| SAGTVKVSEDGDKLTVTMTAPPESPALVEALIQALKDAGLTIVTAEITTEPGEGDLVRTTITLTLKPPASAG [r5_739_JUSTAS] | 2.46 ± 0.06 kcal/mol |
| SAGGSAGGSAGGFIARIEYPDGNTRTINPGMSLDELRNLPPDQIRRVEVEPVPPVPDDEKSAGGSAGGSAGG [r7_190_TrROS] | 0.499 ± 0.079 kcal/mol |
| SAGGKQEIEIPIPYKNGMPFRIRIEWEEDPNKPRLRIPIWAPNMPASNFAEEIKKELPPDIKDVEIWPSAGG [r13_404_TrROS] | 0.0846 ± 0.64 kcal/mol |
| SAGGSAGGSAGGSGKLYYIVVELPNGEKISLLVESPEGAIELLEKLNYPVVKAEFFPISSAGGSAGGSAGGS [r4_213_TrMRF] | 2.84 ± 0.12 kcal/mol |
| SAGGFNRKVTVRVKVPATGEEFEFEFDFEGLTLEEIKRKIKEEIKKKGIVLKPDNPVVIEITDLEEDPASAG [r5_230_JUSTAS] | 3.98 ± 0.33 kcal/mol |
| SAGGSMELYTKSPDGKLFKVKIVNPGNAKDKVLFEAEVFDPKNNKPIGRFTGVVDPKTGKIISIKPSAGGSA [r2_324_TrMRF] | 1.64 ± 0.13 kcal/mol |
| SSPSSVPDAVVQALKEAHPDVVSIEVTPLPPESTRISVTLKSGSGSSTVSFSIPSPEGVTRTYTVSVSNPSA [r9_678_JUSTAS] | 1.04 ± 0.064 kcal/mol |
| SAGGSAGGSAGGKYKIKEIKVEEVDGKKYVKLVIYDKNGKPVKTIVMSLEELKKLPPELLSAGGSAGGSAGG [r7_263_TrROS_Hall] | 1.89 ± 0.22 kcal/mol |
| SAGGSAEKPVKIHLMYNPDYYYVRIRNNGGPQSFMFKPDMDIEEIANNFPPGIDEIEIHPMPPEAFSAGGSA [r15_1058_TrROS] | 0.421 ± 0.1 kcal/mol |
| SAGGNDDNWRVIEFTFSPGNIKPEQIRSLLENAGADRITDVEVQRTPNSYTVTFYFPNGKPVEITIPSAGGS [r8_86_TrROS] | 2.13 ± 0.13 kcal/mol |
| SAGGSAGGSAGGSKYIVIRIPGSVDELIDYLRDSGFKIKIESVEYDPPNGEFYVVFKIKSAGGSAGGSAGGS [r4_315_TrROS] | 2.87 ± 0.052 kcal/mol |
| SDIENMPPEQFVHYIREALDEERENNPGEPVRIPIKDLGDKFPGFPPSMLKDMLGLTEDDLNNGPITIRPSA [r9_525_TrROS] | -0.0917 ± 0.23 kcal/mol |
| SMIQVDIKPDAINVTVTKEGKSVTVPMDLEELEELLKKGVEKVEIKSPDPEVLEKIKELVEKAGVPIELKSA [r9_810_JUSTAS] | 1.02 ± 0.25 kcal/mol |
| SAGMLGEEAIKDVKLELKEAPENEELVFEDTFPVGDKIARIRIVLKLPKNGGYEIKDIPIEVMAPEEAESAG [r5_96_TrMRF] | < -1 kcal/mol |
| SAGGSAKGPKTVTYEFKIKYGDKYYLIKVTVKLHEVKYDPKTKKYTLNLKPNDKLEIKVEIYELDDSAGGSA [r15_1040_TrMRF] | 3.7 ± 0.3 kcal/mol |
| SAGGSAGGDYMMIKITNGSIKLMDGDDGKPIANLPPNQEITIMIPIKPPPPPEERKYDPNGKPKSAGGSAGG [r6_40_TrROS] | 0.799 ± 0.32 kcal/mol |
| SLSKSTPVSSLEEALKIAKEAAEEFEKELGKPYPVLVEVEFEPLEDGSVLVRFKLYRPEEGKYLREIEVGSA [r9_794_TrMRF] | 1.38 ± 0.18 kcal/mol |

From the supplement of paper PMC12764529
